The source of these data is PMC3671127.

In test [1] the target is HIV-1 Pol polyprotein with a catalytically dead protease (sPol-PR_(D25N)) (HIV-1 (IIIB)). As to the kind of experiment: AlphaScreen or HTRF; 33 nM GST-sPol-PR_(D25N) and 33 nM His-MBP-sPol-PR_(D25N) kept constant, CX05045 (raltegravir, DMSO as controls) titrated 1:10 from 100 uM; 25 mM Tris/HCl pH 7.5, 150 mM NaCl, 1 mM dithiothreitol, 1 mM MgCl2, 0.1% BSA, 0.1% Tween 20; overnight at 4°C, then glutathione donor and Ni-chelate acceptor beads 2 h at 23°C.

Test [2] concerns the target HIV-1 integrase A128T (LEDGIN-resistant), fluorescently labelled (IN_(A128T)-mTFP1 and IN_(A128T)-mVenus) in virions (HIV-1). As to the kind of experiment: FRET or BRET; single virus FRET by acceptor photobleaching (TIRF microscopy) on fixed virions with IN-mTFP1 donor and IN-mVenus acceptor; FRET ratio = FD/FDA; virions produced in the presence of CX05045 (5-fold EC50).

For test [3] the target is unchanged. As to the kind of experiment: FRET or BRET; single virus FRET by acceptor photobleaching (TIRF microscopy) on fixed virions with IN-mTFP1 donor and IN-mVenus acceptor; FRET ratio = FD/FDA, unity means no FRET; virions produced in the presence of DMSO.
The target of test [4] is HIV-1 integrase, wild type, fluorescently labelled (IN-mTFP1 and IN-mVenus) in virions (HIV-1) (UniProt P12497). As to the kind of experiment: FRET or BRET; single virus FRET by acceptor photobleaching (TIRF microscopy) on fixed virions with IN-mTFP1 donor and IN-mVenus acceptor; FRET ratio = FD/FDA; virions produced in the presence of CX05045 (5-fold EC50).
Test [5] has the same target. As to the kind of experiment: FRET or BRET; single virus FRET by acceptor photobleaching (TIRF microscopy) on fixed virions with IN-mTFP1 donor and IN-mVenus acceptor; FRET ratio = FD/FDA, unity means no FRET; virions produced in the presence of DMSO.
Test [6] has the same target. As to the kind of experiment: FRET or BRET; single virus FRET by acceptor photobleaching (TIRF microscopy) on fixed virions with IN-mTFP1 donor and IN-mVenus acceptor; FRET ratio = FD/FDA; virions produced in the presence of raltegravir (5-fold EC50).

Regarding “HIV-1 Pol polyprotein with a catalytically dead protease (sPol-PR_(D25N)) (natural protein)”, the EC50 of CX05045 for the enhancement of Pol-Pol multimerization in test [1] stood at 8.7 nM.
On to “HIV-1 integrase A128T (LEDGIN-resistant), fluorescently labelled (IN_(A128T)-mTFP1 and IN_(A128T)-mVenus) in virions (enzyme)”, for which the mean FRET ratio (CX05045) in test [2] was found to be 1.23. Also, the mean FRET ratio (DMSO) in test [3] stood at 1.26.
Regarding “HIV-1 integrase, wild type, fluorescently labelled (IN-mTFP1 and IN-mVenus) in virions (from UniProt P12497 1148-1435) (enzyme)”, in test [4], the mean FRET ratio (CX05045) was 1.43. In test [5], the mean FRET ratio (DMSO) turned out to be 1.25. Also, in test [6], the mean FRET ratio (raltegravir) was 1.22.
